# Data from PMC11446229, “CyaY and TusA regulate ISC- and SUF-mediated L-cysteine desulfurase activity†” (RSC Chemical Biology, 2024).
# B1: SufS, cysteine desulfurase of the SUF system (enzyme, E. coli, UniProt P77444 1-406, looked up)
# chain: MIFSVDKVRADFPVLSREVNGLPLAYLDSAASAQKPSQVIDAEAEFYRHGYAAVHRGIHTLSAQATEKMENVRKRASLFINARSAEELVFVRGTTEGINLVANSWGNSNVRAGDNIIISQMEHHANIVPWQMLCARVGAELRVIPLNPDGTLQLETLPTLFDEKTRLLAITHVSNVLGTENPLAEMITLAHQHGAKVLVDGAQAVMHHPVDVQALDCDFYVFSGHKLYGPTGIGILYVKEALLQEMPPWEGGGSMIATVSLSEGTTWTKAPWRFEAGTPNTGGIIGLGAALEYVSALGLNNIAEYEQNLMHYALSQLESVPDLTLYGPQNRLGVIAFNLGKHHAYDVGSFLDNYGIAVRTGHHCAMPLMAYYNVPAMCRASLAMYNTHEEVDRLVTGLQRIHRLLG
# notes: SufS, L-cysteine desulfurase of E. coli; Seen by native MS as a dimer with associated PLP cofactors (89 956 Da; predicted 89 892 Da + (S0)2); Surmise: the predicted mass is larger than two natural chains plus two PLP, so a few residues may be left on each chain after thrombin cleavage; also called (SufS)2; dimeric SufS; source: E. coli BL21 DE3, plasmid pSL213, purified, (His)6-tag cleaved with …
# Legend:
# [1] = molecular target: B1; test: native MS; SufS (~8 uM, ~4 uM dimer) titrated with SufE; 250 mM ammonium acetate pH 8; relative intensities fitted to a sequential binding model (Dynafit); details: both partners purified
# [2] = molecular target: T1, SufSE complex (SufS dimer with bound SufE), formed before CyaY was added (E. coli, UniProt P77444 1-406; P76194 1-138); test: native MS; pre-formed SufSE complexes treated with a 4-fold excess of CyaY and titrated with CyaY up to about 35 uM; 250 mM ammonium acetate pH 8; only the first part of the titration measured, Kd an approximation; details: both partners purified
# T1 construct: SufS, L-cysteine desulfurase of E. coli, as the chain of m4; SufE of E. coli, as the chain of m5; A mixture of complexes: mainly one or two SufE on each SufS dimer, with some (SufE)3(SufS)2 before CyaY was added; In the activity assay 30 uM SufS plus 90 uM SufE; also called SufE–SufS complexes; SufS/SufE; source: mixed from SufS and SufE, each purified from E. coli BL21 DE3; copies: 2 +
# T1 sequence (looked up) 1: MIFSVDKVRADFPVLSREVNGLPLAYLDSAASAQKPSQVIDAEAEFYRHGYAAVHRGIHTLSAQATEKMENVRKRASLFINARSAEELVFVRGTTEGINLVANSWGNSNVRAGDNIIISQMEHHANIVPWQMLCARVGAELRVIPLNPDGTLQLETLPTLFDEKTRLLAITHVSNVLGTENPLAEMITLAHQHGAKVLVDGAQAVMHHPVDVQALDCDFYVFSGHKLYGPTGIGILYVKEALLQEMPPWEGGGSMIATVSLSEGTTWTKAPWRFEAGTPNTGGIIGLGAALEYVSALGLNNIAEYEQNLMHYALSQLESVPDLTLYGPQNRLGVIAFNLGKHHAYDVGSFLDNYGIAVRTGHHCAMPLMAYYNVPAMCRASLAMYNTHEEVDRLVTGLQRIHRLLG
# T1 sequence (looked up) 2: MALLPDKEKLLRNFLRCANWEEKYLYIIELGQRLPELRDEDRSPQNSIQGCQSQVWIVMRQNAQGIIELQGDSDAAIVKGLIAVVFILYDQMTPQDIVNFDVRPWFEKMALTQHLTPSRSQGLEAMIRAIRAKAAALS
# [3] = molecular target: T2, IscS, cysteine desulfurase of the ISC system (E. coli, UniProt P0A6B7 1-404); test: native MS; IscS (8 uM, 4 uM dimer) pre-treated with 0.5 equivalents of TusA (4 uM), then titrated with CyaY; 250 mM ammonium acetate pH 8; relative intensities fitted to a simple competition binding model (Dynafit); details: both partners purified
# T2 construct: IscS, L-cysteine desulfurase of E. coli; Seen by native MS as a dimer with associated PLP cofactors (90 662 Da; predicted 90 642 Da + Na); No tag is named for this construct; Surmise: the predicted mass fits two untagged whole chains plus two PLP; also called (IscS)2; dimeric IscS; source: E. coli BL21 DE3, plasmid pSL209, purified (previously published procedures)
# [4] = molecular target: the molecule itself; test: native MS; desulfurase alone, ~8 uM (~4 uM dimer), 250 mM ammonium acetate pH 8.0, deconvoluted spectrum
binder,measurement,setting,value
"SufE (natural protein, E. coli, UniProt P76194 1-138, looked up, SufE, sulfur acceptor of SufS, E. coli; Tag cleavage is told only of SufS and CyaY; Surmise: the printed mass interval of ~16.7 kDa for each SufE is larger than the natural chain, so the tag may have been kept; also called SufE-(His)6; source: E. coli BL21 DE3, plasmid pET15b, purified (previously published procedures)) MALLPDKEKLLRNFLRCANWEEKYLYIIELGQRLPELRDEDRSPQNSIQGCQSQVWIVMRQNAQGIIELQGDSDAAIVKGLIAVVFILYDQMTPQDIVNFDVRPWFEKMALTQHLTPSRSQGLEAMIRAIRAKAAALS",Kd of the first and second SufE on the SufS dimer (high affinity site),[1],~8 µM
same,Kd of the third and fourth SufE on the SufS dimer (low affinity site),[1],~71 µM
same,stoichiometry N,[1],≤ 4 per SufS dimer
"CyaY, the frataxin homolog of Escherichia coli (natural protein, E. coli, UniProt P27838 1-106, looked up, CyaY, frataxin homolog of E. coli; Two plasmids are named (pET15b or pMB10); also called CyaY-(His)6; source: E. coli BL21 DE3, plasmid pET15b or pMB10, purified, (His)6-tag cleaved with thrombin) MNDSEFHRLADQLWLTIEERLDDWDGDSDIDCEINGGVLTITFENGSKIIINRQEPLHQVWLATKQGGYHFDLKGDEWICDRSGETFWDLLEQAATQQAGETVSFR",Kd,[2],~70 µM
same,Kd,[3],~26 µM
same,stoichiometry N,[3],≤ 2 per IscS dimer
B1,stoichiometry N,[4],2
